In patent publication US12006368 (SURROZEN OPERATING, dated 2024):

What was measured:
[1] = biological target: Fzd1 cysteine rich domain (CRD), C-terminally biotinylated (human, UniProt Q9UP38 101-230); assay: BLI
Procedure: (§1) Binding kinetics of antibody fragments to a variety of Fzd cysteine rich domain (CRD) protein targets (Fzd1, Fzd2, Fzd3, Fzd4, Fzd5, Fzd6, Fzd7, Fzd8, Fzd9 and/or Fzd10 CRDs) was determined by bio-layer interferometry (BLI) using Octet Red 96 (PALL ForteBio, Fremont, CA) instruments at 30° C., 1000 rpm with streptavidin (SA) biosensors. C-terminal biotinylated Fzd CRD recombinant protein was diluted to 20 nM in the running buffer (PBS, 0.05% Tween-20, 0.5% BSA, pH 7.2) and captured to the SA biosensor until coupling length reached 0.2 nm. Following capture of the Fzd CRD, the SA biosensor with captured biotinylated-Fzd CRD was dipped into wells containing the relevant antibody fragment at […] (0, 1.37, 4.12, 12.4, 37, 111.1, 333.3, 1000 nM) in running buffer, plus a well with only running buffer as a reference channel. […] was determined by global fitting, 1:1 binding model according to manufacturer recommended settings.
(§2) Table 1B provides clone IDs, the sequence identifier number of the antibody heavy chain fragment and/or light chain fragment, if present, for illustrative clones. In certain embodiments, the Fzd binding domain is an Fab or was derived from an Fab, so the heavy chain of Table 1B includes VH and CH1 sequence, but not CH2 or CH3 sequences. In certain embodiments, the Fzd binding domain is a VHH or sdAb® or was derived from a VHH or sdAb, so Table 1B includes the VHH domain. […] The Kd values were determined by BLI as described above. Blank entries denote that the binding to the specific Fzd receptor has not yet been determined. The entry of "n.b." indicates no binding.

[2] = biological target: Fzd2 cysteine rich domain (CRD), C-terminally biotinylated (human, UniProt Q14332 24-155); assay: BLI
Procedure: as §1, §2

Row | Binder | binding result [1] | binding result [2]
1 | 005S-E09 (Fab, V domains shown) VH: EVQLVQSGGGLVQPGGSLRLSCAASGFNLRRYNMNWVRQAPGKGLEWVSRISNSGSLVYYADSVKGRFTISRDNSKNTLYLQMNSLRAEDTAVYYCARDADSSGYYRYDAFDIWGQGTMVTVSS VL: EIVLTQSPATLSVSPGERATLSCRASQSVSSNLAWYQQKPGQAPRLLIYDASNRATGIPARFSGSGSGTEFTLTISSLQSEDFAVYYCQQRNNWLYTFGQGTKVEIKR | no binding (tested: 1000 nM) | no binding (tested: 1000 nM)
2 | 005S-A07 (Fab, V domains shown) VH: QVQLVQSGAEVKKPGSSVKVSCKASGFTFTGSAVQWVRQAPGQGLEWVGGILPIYGTTKYAQKFQGRVTITADESTSTAYMELSSLRSEDTAVYYCARGARLYGFDYWGQGTLVTVSS VL: EIVLTQSPATLSVSPGERATLSCRASQSVSRNLAWYQQKPGQAPRLLIYGASTRATGIPARFSGSGSGTEFTLTISSLQSEDFAVYYCQQRSNWPITFGQGTRLEIKR | no binding (tested: 1000 nM) | no binding (tested: 1000 nM)
3 | 005S-D11 (Fab, V domains shown) VH: QVQLVQSGAEVKKPGASVKVSCKASGYTFTNNFMHWVRQAPGQGLEWMGWINPNSGDTKFAPKFQGRVTMTRDTSTSTVYMELSSLRSEDTAVYYCAREANYDILTGYIRPDAFDIWGQGTTVTVSS VL: EIVLTQSPATLSVSPGERATLSCRASQSLRSKLAWYQQKPGQAPRLLIYGASTRATGIPARFSGSGSGTEFTLTISSLQSEDFAVYYCQQYANSPWTFGPGTKVDIKR | no binding (tested: 1000 nM) | no binding (tested: 1000 nM)
4 | 005S-H10 (Fab, V domains shown) VH: QVQLVQSGAEVKKPGSSVKVSCKASGGAFSTSSISWVRQAPGQGLEWVGRIIPVLGTANYAQKFQGRVTITADESTSTAYMELSSLRSEDTAVYYCAKGGWRSSFDPWGQGTLVTVSS VL: not shown | no binding (tested: 1000 nM) | no binding (tested: 1000 nM)
5 | 014S-G06 (Fab, V domains shown) VH: EVQLVESGGGLVKPGGSLRLSCAASGFTFSSYAMHWVRQAPGKGLEWVSAIGAGGGTYYADSVKGRFTISRDDSKNTLYLQMNSLKTEDTAVYYCARDAYNWFDPWGQGTLVTVSS VL: not shown | no binding (tested: 1000 nM) | no binding (tested: 1000 nM)
6 | 004S-A12 (Fab, V domains shown) VH: QVQLVQSGAEVKKPGASVKVSCKASGYTFTNNFMHWVRQAPGQGLEWMGRINPNSGGTNYAQKFQGRVTMTRDTSTSTVYMELSSLRSEDTAVYYCARGQGYSSGWYRGDAFDIWGQGTTVTVSS VL: not shown | no binding (tested: 1000 nM) | no binding (tested: 1000 nM)
7 | 014S-G02 (Fab, V domains shown) VH: QVQLVQSGAEVKKPGASVKVSCKASGYTFTSYYMNWVRQAPGQGLEWMGIISPSGGSTSYAQKFQGRVTMTRDTSTSTVYMELSSLRSEDTAVYYCARWGDYGDLYYFDYWGQGTLVTVSS VL: DIQMTQSPSSLSASVGDRVTITCRASQGISSALAWYQQKPGKAPKLLIYATSTLQSGVPSRFSGSGSGTDFTLTISSLQPEDFATYYCQQVNSYPPTFGQGTKLEIKR | no binding (tested: 1000 nM) | no binding (tested: 1000 nM)
8 | 003S-D10 (Fab, V domains shown) VH: EVQLVESGGGLVKPGGSLRLSCAASGFNFGIYSMTWVRQAPGKGLEWISYISGDSGYTNYADSVKGRFTISRDDSKNTLYLQMNSLKTEDTAVYYCARVGPGGWFDPWGQGTLVTVSS VL: DIQMTQSPSSLSASVGDRVTITCRASQGISSYLAWYQQKPGKAPKLLIYAASNLLGGVPSRFSGSGSGTDFTLTISSLQPEDFATYYCQQTYSTPWTFGQGTKVEIKR | no binding (tested: 1000 nM) | no binding (tested: 1000 nM)
9 | 004S-B08 (Fab, V domains shown) VH: QVQLVQSGAEVKKPGASVKVSCKASGYTFTNNFMHWVRQAPGQGLEWMGRINPNSGGTNYAQKFQGRVTMTRDTSTSTVYMELSSLRSEDTAVYYCASQNYYGSGSYPGFDYWGQGTLVNVSS VL: not shown | no binding (tested: 1000 nM) | no binding (tested: 1000 nM)
10 | 004S-F10 (Fab, V domains shown) VH: EVQLVESGGGLVQPGGSLRLSCAASGFTFSDHYMSWVRQAPGKGLEWVALVGYDGSQQFYGESVKGRFTISRDNSKNTLYLQMNSLRAEDTAVYYCNTGIPMLYWGQGTLVTVSS VL: not shown | no binding (tested: 1000 nM) | no binding (tested: 1000 nM)

Next, values leading:

Row | binding result [1] | binding result [2] | Binder
11 | no binding (tested: 1000 nM) | no binding (tested: 1000 nM) | 017S-B09 (VHH) VHH: AVQQVESGGGLVQPGGSLRLSCAASGFTLDYYAISWFRQAPGKKRELVADITSGGSTNYADSVKGRFTISRDNAKNTIYLQMNSLKPEDTAVYFCNAVTYNGYTIWGQGTQVTVSS
12 | no binding (tested: 1000 nM) | no binding (tested: 1000 nM) | 014S-A07 (Fab, V domains shown) VH: EVQLVESGGGLVKPGGSLRLSCAASGFTFSNAQMSWVRQAPGKGLEWVSAIGTGGGTYYADSVKGRFTISRDDSKNTLYLQMNSLKTEDTAVYYCAREGSYYDWYFDLWGRGTLVTVSS VL: EIVLTQSPATLSVSPGERATLSCRASQNIGSRLAWYQQKPGQAPRLLIYGASNRASGIPARFSGSGSGTEFTLTISSLQSEDFAVYYCQQYNHWPPLFTFGPGTKVDIKR
13 | no binding (tested: 1000 nM) | no binding (tested: 1000 nM) | 005S-D08 (Fab, V domains shown) VH: EVQLVESGGGLVQPGGSLRLSCAASGFAFSSHWMHWVRQAPGKGLEWVSAIDGSGGSTYYADSVKGRFTISRDNSKNTLYLQMNSLRAEDTAVYYCARDRQLGWAHWYFDLWGRGTLVTVSS VL: not shown
14 | no binding (tested: 1000 nM) | no binding (tested: 1000 nM) | 004S-A11 (Fab, V domains shown) VH: QVQLVQSGAEVKKPGSSVKVSCKASGGTFSSYAISWVRQAPGQGLEWMGRIIPILGIANYAQKFQGRVTITADESTSTAYMELSSLRSEDTAVYYCARESVNNYYYMDVWGKGTTVTVSS VL: not shown
15 | no binding (tested: 1000 nM) | no binding (tested: 1000 nM) | 014S-B06 (Fab, V domains shown) VH: EVQLVQSGGGLVKPGGSLRLSCAASGFTFSSYSMNWVRQAPGKGLEWVSYIENDGSITTYADSVKGRFTISRDDSKNTLYLQMNSLKTEDTAVYYCARAPYYYGSGSLFRLDYWGQGTLVTVSS VL: not shown
16 | no binding (tested: 1000 nM) | no binding (tested: 1000 nM) | 005S-B11 (Fab, V domains shown) VH: QVQLVQSGAEVKKPGASVKVSCKASGYTFTSYDINWVRQAPGQGLEWMGGFDPEDGETIYAQKFQGRVTMTRDTSTSTVYMELSSLRSEDTAVYYCAKAGDWGLYGMDVWGQGTMVTVSS VL: DIQMTQSPSSLSASVGDRVTITCRASQSISRWLAWYQQKPGKAPKLLIYAASSLQSGVPSRFSGSGSGTDFTLTISSLQPEDFATYYCQQTNTFPFTFGPGTKVDIKR
17 | no binding (tested: 1000 nM) | no binding (tested: 1000 nM) | 005S-B07 (Fab, V domains shown) VH: QVQLVQSGAEVKKPGASVKVSCKASGFTFTSSAVQWVRQAPGQGLEWMGWMNPNSGNTGYAQKFQGRVTMTRDTSTSTVYMELSSLRSEDTAVYYCARGRGQQWLTGYYGMDVWGQGTTVTVSS VL: DIQMTQSPSSLSASVGDRVTITCRASQGISSALAWYQQKPGKAPKLLIYGASTLQSGVPSRFSGSGSGTDFTLTISSLQPEDFATYYCLQDYNYPFTFGPGTKVDIKR
18 | no binding (tested: 1000 nM) | no binding (tested: 1000 nM) | 014S-B04 (Fab, V domains shown) VH: QVQLVQSGAEVKKPGASVKVSCKASGYIFTDYYMHWVRQAPGQGLEWMGWMNPNSGNTGYAQKFQGRVTMTRDTSTSTVYMELSSLRSEDTAVYYCARGGSRYDFWSGHWYFDLWGRGTLVTVSS VL: DIQMTQSPSSLSASVGDRVTITCRASQGISNYLAWYQQKPGKAPKLLIYAASSLQSGVPSRFSGSGSGTDFTLTISSLQPEDFATYYCQQSYSTPFTFGQGTKVEIKR
19 | no binding (tested: 1000 nM) | no binding (tested: 1000 nM) | 005S-E12 (Fab, V domains shown) VH: QVQLVQSGAEVKKPGASVKVSCKASGYIFTDYYMHWVRQAPGQGLEWMGVIFPVYPTPDYAQKFQGRVTMTRDTSTSTVYMELSSLRSEDTAVYYCARGGSTGYYGMDVWGQGTTVTVSS VL: DIQMTQSPSSLSASVGDRVTITCRASQSVGRWMAWYQQKPGKAPKLLIYAASSLQSGVPSRFSGSGSGTDFTLTISSLQPEDFATYYCQQANTFPFTFGPGTKVDIKR
